From patent US20230192896A1 (BIOVERATIV THERAPEUTICS, published 2023)

Molecular target: T1, non-activatable Factor X (FXn) (Homo sapiens (Human), UniProt P00742 41-488, single biotin on the C-terminal BioTag)
T1 construct: also called BIIB-FX-015
Assay: BLI; class meaning: paragraph 285

| Binder | binding result |
| --- | --- |
| BIIB-12-895 (antibody, V domains shown, IgG) VH: QVQLVQSGAEVKKPGASVKVSCKASGYTFTSYYMHWVRQAPGQGLEWMGIINPSGGSTSYAQKFQGRVTMTRDTSTSTVYMELSSLRSEDTAVYYCARGGGYKSRGIDYWGQGTLVTVSS VL: DIQMTQSPSSVSASVGDRVTITCRASQGISSWLAWYQQKPGKAPKLLIYAASSLQSGVPSRFSGSGSGTDFTLTISSLQPEDFATYYCQQASSFPFTFGGGTKVEI | binds |
| BIIB-12-891 (antibody, V domains shown, IgG) VH: QVQLVQSGAEVKKPGASVKVSCKASGYTFTSYYIHWVRQAPGQGLEWMGIINPSGGSTSYAQKFQGRVTMTRDTSTSTVYMELSSLRSEDTAVYYCARASIYRGLGAFDIWGQGTMVTVSS VL: not shown | binds |
| BIIB-12-892 (antibody, V domains shown, IgG) VH: QVQLVQSGAEVKKPGASVKVSCKASGYTFTSYYMHWVRQAPGQGLEWMGIINPSGGSTSYAQKFQGRVTMTRDTSTSTVYMELSSLRSEDTAVYYCARGLGRRTPTAFDIWGQGTMVTVSS VL: EIVLTQSPATLSLSPGERATLSCRASQSVSSYLAWYQQKPGQAPRLLIYDASNRATGIPARFSGSGSGTDFTLTISSLEPEDFAVYYCQQRLNLPLTFGGGTKVEIK | binds |
| BIIB-12-896 (antibody, V domains shown, IgG) VH: QVQLVQSGAEVKKPGASVKVSCKASGYTFTSYYMHWVRQAPGQGLEWMGIINPSGGSTSYAQKFQGRVTMTRDTSTSTVYMELSSLRSEDTAVYYCARGLGQQRRGFDIWGQGTLVTVSS VL: DIQMTQSPSSVSASVGDRVTITCRASQGISSWLAWYQQKPGKAPKLLIYAASSLQSGVPSRFSGSGSGTDFTLTISSLQPEDFATYYCQQANSFPFTFGGGTKVEIK | binds |

Other lines, results leading:

| binding result | Binder |
| --- | --- |
| binds | BIIB-12-893 (antibody, V domains shown, IgG) VH: QVQLVQSGAEVKKPGASVKVSCKASGYTFTSYYMVWVRQAPGQGLEWMGIINPSGGSTSYAQKFQGRVTMTRDTSTSTVYMELSSLRSEDTAVYYCARDPGRRQYSFYGMDVWGQGTTVTVSS VL: DIQLTQSPSSVSASVGDRVTITCRASQGISSWLAWYQQKPGKAPKLLIYAASSLQSGVPSRFSGSGSGTDFTLTISSLQPEDFATYYCQQAAAFPFTFGGGTKVEIK |
| binds | BIIB-12-898 (antibody, V domains shown, IgG) VH: QVQLVQSGAEVKKPGASVKVSCKASGYTFTSYYMHWVRQAPGQGLEWMGIINPSGGSTTYAQKFQGRVTMTRDTSTSTVYMELSSLRSEDTAVYYCARGDRMLRAFDPWGQGTLVTVSS VL: DIQLTQSPSTLSASVGDRVTITCRASQAISSWLAWYQQKPGKAPKLLIYDASSLESGVPSRFSGSGSGTEFTLTISSLQPDDFATYYCQQVNRFPFTFGGGTKVEIK |
| binds | BIIB-12-1290 (antibody, V domains shown, IgG) VH: QVQLVQSGAEVKKPGASVKVSCKASGYTFTSYYMHWVRQAPGQGLEWMGIINPGGGSTSYAQKFQGRVTMTRDTSTSTVYMELSSLRSEDTAVYYCAREGGRYVRGMDVWGQGTTVTVSS VL: DIQMTQSPSSVSASVGDRVTITCRASQGISSWLAWYQQKPGKAPKLLIYAASSLQSGVPSRFSGSGSGTDFTLTISSLQPEDFATYYCQQGFSFPFTFGGGTKVEIK |
| binds | BIIB-12-1293 (antibody, V domains shown, IgG) VH: QVQLVQSGAEVKKPGASVKVSCKASGYTFTSYYMHWVRQAPGQGLEWMGIINPSGGSTSYAQKFQGRVTMTRDTSTSTVYMELSSLRSEDTAVYYCARGSGGKHRGLDVWGQGTMVTVSS VL: DIQMTQSPSSVSASVGDRVTITCRASQGISSWLAWYQQKPGKAPKLLIYAASSLQSGVPSRFSGSGSGTDFTLTISSLQPEDFATYYCQQANIFPFTFGGGTKVEIK |
| binds | BIIB-12-897 (antibody, V domains shown, IgG) VH: QLQLQESGPGLVKPSETLSLTCTVSGGSISSSSYYWGWIRQPPGKGLEWIGSIYYSGSTYYNPSLKSRVTISVDTSKNQFSLKLSSVTAADTAVYYCAREGRTYYGGWFDPWGQGTLVTVSS VL: EIVLTQSPGTLSLSPGERATLSCRASQSVSSSYLAWYQQKPGQAPRLLIYGASSRATGIPDRFSGSGSGTDFTLTISRLEPEDFAVYYCQQDGNYPYTFGGGTKVEIK |
